From patent US20220289837A1, “Cystic Fibrosis Transmembrane Conductance Regulator Stabilizing Agents” (VIB VZW, priority 2019, published 2022)

What was measured:
F508del-2PT-NBD1 = target: T1, F508del-2PT-NBD1 (Homo sapiens, UniProt P13569, A534P/DEL508-508/I539T/S492P/V470M); assay: Thermal shift assay (DSF) of F508del-2PT-NBD1; format: binding
T1 construct: His6-SUMO (N, cleaved yes); made in house; host or cells: Escherichia coli BL21(DE3) pLysS
Experimental: Solutions of either 2PT-NBD1 or F508del-2PT-NBD1 (10 μM final concentration), nanobodies (30 μM final concentration) and 2.5× or 5× concentrated SYPRO Orange Protein Stain (Molecular Probes) diluted in 20 mM HEPES pH 7.5, 150 mM NaCl, 3 mM MgCl2, 2 mM ATP and 10% (w/v) glycerol, 10% (w/v) ethylene glycol, were added to the wells of a 96-well PCR plates type BR white (VWR) in a final volume of 25 μl. Plates were sealed with EasySeal sheets (Molecular dimensions) and spun 2 min at 900× g. SYPRO orange fluorescence was monitored in CFX96 Touch Real-Time PCR Detection System (Bio-Rad) using FRET scan mode from 10 to 80° C. in increments of either 1° C. or 0.2° C.

wt-CFTR = wt-CFTR (Homo sapiens, UniProt P13569); assay: CFTR pull-down from solubilized BHK-21 cells with immunoblot; format: binding; parameters: expressed in transfected cells; conditions: immunoblot with mAb 596
Experimental: Human wt-CFTR was extracted from BHK-21 cells pellet by solubilization with 1% DMNG in PBS with proteases inhibitors for 1 h at 4° C. The cells debris were removed by centrifugation (16,000×g for 30 min at 4° C.). Supernatant was diluted 10 times in PBS with proteases inhibitors plus 10 mM imidazole and incubated at least for 30 min on HisPur Ni-NTA Resin (Thermo Scientific) pre-loaded with nanobodies. Resin was washed with 40 column volumes of PBS with 300 mM NaCl. Nanobodies were eluted with 200 mM imidazole in PBS. Presence of CFTR in each sample was detected by SDS-PAGE and immuno-blotting.
Cell extracts were separated by SDS-PAGE on 7.5% polyacrylamide gel and transferred to nitrocellulose membrane (Bio-Rad) for immunodetection. After blocking for 1 h with 5% bovine serum albumin (BSA) in Tris-buffered saline added 0.05% Tween-20 (TBST), CFTR was detected using monoclonal antibody mAb 596, IgG2b (CFTR Antibody Distribution Program, dilution 1:46) for 1 h in blocking buffer. Blot was washed 3 times 5 min and incubated with anti-mouse-HRP antibody (Millipore, catalogue number: AP308P, 0.2 μg/ml) for 1 h in TBST. Membrane was washed 3 times for 5 min. CFTR was visualized by chemiluminescence using Luminata Forte Western HRP Substrate (Millipore) and detected with ImageQuant 400 (GE Healthcare).

F508del-CFTR = target: T2, F508del-CFTR (Homo sapiens, UniProt P13569, DEL508-508); assay: HS-YFP quenching assay; format: cell-based; conditions: HEK293T F508del-CFTR + HS-YFP, 10 μM forskolin and 3 μM VX770, 3 μM VX809 or DMSO 24 h
T2 construct: expressed in transfected cells
Experimental: To study CFTR function in cells, we used a HS-YFP quenching assay where changes in fluorescence of halide sensitive YFP (HS-YFP) reflect halide entrance through CFTR. HEK293T cells stably expressing F508del-CFTR (or WT CFTR as a control) and a modified YFP were transiently transfected with pcDNA3-based plasmid coding either for a stabilizing nanobody (T2a, D12 or T27) or a control nanobody (not binding F508del-CFTR) and incubated with 3 μM VX809 corrector or 0.06% DMSO for 24 h. Before addition of iodide, cells are stimulated by 10 μM forskolin and 3 μM VX770 potentiator for 20 mins and YFP fluorescence signal is measured (excitation 485, emission 535 nm) over a period of 4 seconds.
The assay was performed as described previously in (Ensinck, et al. 2020) with minor modifications. Briefly, cells stably expressing wt- or F508del-CFTR and a halide sensitive yellow fluorescent protein (HS-YFP) (Galietta, et al. 2001) were transfected with plasmids encoding the nanobodies using PEI and immediately plated into black, clear-bottomed 96-well plates coated with Poly-D-Lysine. After overnight incubation VX-809 (3 μM) or DMSO was added for 24 h. Next, the cells were washed with DPBS and potentiator VX-770 (3 μM) and/or CFTR activator forskolin (#F3917, Sigma-Aldrich, 10 μM) was added for 20 min. Fluorescence was measured after which a I^− buffer (137 mM Nal, 2.7 mM KI, 1.7 mM KH2PO4, 10.1 mM Na2HPO4, 5 mM D-glucose) was injected into the well and fluorescence monitored for another 4 s. YFP quenching was determined at the end of the interval as F/F0, and CFTR function as 1-(F/F0).

2PT-F508del-CFTR = target: T3, 2PT-F508del-CFTR (Homo sapiens, UniProt P13569, A534P/DEL508-508/I539T/S492P); assay: Flow cytometry on BHK-21 cells expressing 2PT-F508del-CFTR; format: cell-based
T3 construct: expressed in transfected cells
Experimental: Parental BHK-21 cells (ATCC; CCL-10) and cells stably overexpressing human wt-CFTR^[43,44,47] or 2PT-F508del-CFTR, as described above, were permeabilized with 0.01% n-Dodecyl-β-D-Maltopyranoside β-DDM—Inalco) at least for 2 h on ice. In the meantime, cells were incubated with 50 μg/ml nanobodies and DRAQ7 (0.3 μM—Biostatus) to monitor the permeabilization state. Nanobody binding was detected by using His-tag specific antibody (Invitrogen, catalogue number MA1-135, 1 μg/ml) or Myc-tag specific antibody (Invitrogen, catalogue number 13-2500, 2 μg/ml) and then anti-mouse-Alexa Fluor 488 (Invitrogen, catalogue number A11001, 1.3 μg/ml) at least for 30 min on ice. Cells were washed one time between each step by centrifugation (200×g for 5 min at 4° C.). All incubations (100 μl) and washes (1.5 ml) were performed in PBS with 6% fetal bovine serum (FBS) and 0.01%13-DDM on ice. Cells fluorescence was measured with Gallios Flow Cytometer (Beckman Coulter). Data were analyzed with Kaluza software.

T3 sequence (P13569 with tags, fused parts or gaps S492P/DEL508-508/A534P/I539T): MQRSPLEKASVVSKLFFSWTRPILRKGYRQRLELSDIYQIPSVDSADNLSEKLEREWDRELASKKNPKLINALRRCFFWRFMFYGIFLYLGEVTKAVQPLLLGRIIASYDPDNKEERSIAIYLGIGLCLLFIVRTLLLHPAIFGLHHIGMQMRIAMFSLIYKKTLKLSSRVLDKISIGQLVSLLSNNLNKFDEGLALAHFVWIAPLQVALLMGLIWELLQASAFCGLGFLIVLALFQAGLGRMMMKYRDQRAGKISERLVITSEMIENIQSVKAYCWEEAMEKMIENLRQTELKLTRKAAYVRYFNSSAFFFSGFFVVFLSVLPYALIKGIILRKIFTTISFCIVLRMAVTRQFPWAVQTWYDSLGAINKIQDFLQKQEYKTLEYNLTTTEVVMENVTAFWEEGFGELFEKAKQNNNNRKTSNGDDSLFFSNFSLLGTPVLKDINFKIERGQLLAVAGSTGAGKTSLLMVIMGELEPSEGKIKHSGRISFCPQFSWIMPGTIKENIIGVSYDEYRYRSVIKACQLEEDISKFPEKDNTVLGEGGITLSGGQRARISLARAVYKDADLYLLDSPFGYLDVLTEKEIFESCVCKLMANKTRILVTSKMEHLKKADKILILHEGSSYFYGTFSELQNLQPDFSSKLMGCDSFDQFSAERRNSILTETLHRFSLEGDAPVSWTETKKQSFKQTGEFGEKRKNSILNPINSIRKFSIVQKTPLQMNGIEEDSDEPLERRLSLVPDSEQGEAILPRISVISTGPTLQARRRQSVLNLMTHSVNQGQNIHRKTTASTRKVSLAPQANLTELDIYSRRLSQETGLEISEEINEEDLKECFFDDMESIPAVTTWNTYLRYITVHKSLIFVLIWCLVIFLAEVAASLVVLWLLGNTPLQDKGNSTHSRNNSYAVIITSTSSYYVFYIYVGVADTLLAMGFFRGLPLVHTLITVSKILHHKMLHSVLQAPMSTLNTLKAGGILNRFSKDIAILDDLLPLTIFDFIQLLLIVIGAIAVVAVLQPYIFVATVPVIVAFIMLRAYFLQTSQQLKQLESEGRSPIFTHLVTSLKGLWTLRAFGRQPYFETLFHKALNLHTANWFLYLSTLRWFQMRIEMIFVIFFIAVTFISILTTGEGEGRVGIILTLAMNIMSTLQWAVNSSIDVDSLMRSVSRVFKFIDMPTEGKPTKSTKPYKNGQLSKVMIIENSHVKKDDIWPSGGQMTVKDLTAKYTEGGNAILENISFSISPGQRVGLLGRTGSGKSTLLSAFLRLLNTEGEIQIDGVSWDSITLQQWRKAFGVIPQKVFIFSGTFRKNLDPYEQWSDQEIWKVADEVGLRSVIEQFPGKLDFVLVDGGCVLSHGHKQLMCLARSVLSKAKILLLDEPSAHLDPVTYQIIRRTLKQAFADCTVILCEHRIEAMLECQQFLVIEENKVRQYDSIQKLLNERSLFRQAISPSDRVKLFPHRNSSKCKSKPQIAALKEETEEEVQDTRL
T2 sequence (P13569 with tags, fused parts or gaps DEL508-508): as the sequence (P13569 with tags, fused parts or gaps S492P/DEL508-508/A534P/I539T) above, with P492S, P533A, T538I counted along it
Sequence of wt-CFTR (P13569 whole entry): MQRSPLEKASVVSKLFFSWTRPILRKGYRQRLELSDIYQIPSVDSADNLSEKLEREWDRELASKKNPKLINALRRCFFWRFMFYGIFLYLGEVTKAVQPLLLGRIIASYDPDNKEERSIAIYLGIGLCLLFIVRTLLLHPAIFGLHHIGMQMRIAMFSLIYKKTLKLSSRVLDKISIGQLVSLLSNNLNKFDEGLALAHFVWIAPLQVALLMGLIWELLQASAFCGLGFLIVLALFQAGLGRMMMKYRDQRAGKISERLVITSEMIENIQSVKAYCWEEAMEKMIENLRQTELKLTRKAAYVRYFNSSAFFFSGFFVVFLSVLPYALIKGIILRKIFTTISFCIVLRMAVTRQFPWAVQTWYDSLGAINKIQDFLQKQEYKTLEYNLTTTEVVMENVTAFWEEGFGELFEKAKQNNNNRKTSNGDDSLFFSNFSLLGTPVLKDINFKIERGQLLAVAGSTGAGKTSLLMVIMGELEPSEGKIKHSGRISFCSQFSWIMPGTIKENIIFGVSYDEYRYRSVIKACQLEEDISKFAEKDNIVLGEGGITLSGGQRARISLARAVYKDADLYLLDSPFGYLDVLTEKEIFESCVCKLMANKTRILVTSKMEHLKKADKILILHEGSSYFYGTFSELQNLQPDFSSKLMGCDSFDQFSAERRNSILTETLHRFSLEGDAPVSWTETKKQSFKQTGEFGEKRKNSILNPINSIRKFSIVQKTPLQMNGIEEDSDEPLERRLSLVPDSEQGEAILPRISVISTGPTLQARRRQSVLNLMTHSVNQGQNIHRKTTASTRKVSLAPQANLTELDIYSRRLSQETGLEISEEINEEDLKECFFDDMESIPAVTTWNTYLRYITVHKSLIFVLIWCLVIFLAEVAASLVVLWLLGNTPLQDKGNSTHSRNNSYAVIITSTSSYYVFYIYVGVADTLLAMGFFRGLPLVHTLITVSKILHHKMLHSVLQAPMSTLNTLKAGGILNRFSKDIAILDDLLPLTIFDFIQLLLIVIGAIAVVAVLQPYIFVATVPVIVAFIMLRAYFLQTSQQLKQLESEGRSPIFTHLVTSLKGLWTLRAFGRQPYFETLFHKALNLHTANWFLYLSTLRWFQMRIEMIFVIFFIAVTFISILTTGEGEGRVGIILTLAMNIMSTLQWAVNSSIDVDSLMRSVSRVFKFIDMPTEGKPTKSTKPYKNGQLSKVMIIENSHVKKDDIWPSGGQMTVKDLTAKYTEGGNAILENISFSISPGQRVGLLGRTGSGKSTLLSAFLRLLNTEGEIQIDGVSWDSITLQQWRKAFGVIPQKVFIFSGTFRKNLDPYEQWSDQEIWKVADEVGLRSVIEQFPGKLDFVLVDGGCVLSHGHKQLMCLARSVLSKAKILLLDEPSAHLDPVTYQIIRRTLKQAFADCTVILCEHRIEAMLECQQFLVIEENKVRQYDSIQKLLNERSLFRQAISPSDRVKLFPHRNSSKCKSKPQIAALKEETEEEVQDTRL
T1 sequence (P13569 with tags, fused parts or gaps V470M/S492P/DEL508-508/A534P/I539T limits assumed): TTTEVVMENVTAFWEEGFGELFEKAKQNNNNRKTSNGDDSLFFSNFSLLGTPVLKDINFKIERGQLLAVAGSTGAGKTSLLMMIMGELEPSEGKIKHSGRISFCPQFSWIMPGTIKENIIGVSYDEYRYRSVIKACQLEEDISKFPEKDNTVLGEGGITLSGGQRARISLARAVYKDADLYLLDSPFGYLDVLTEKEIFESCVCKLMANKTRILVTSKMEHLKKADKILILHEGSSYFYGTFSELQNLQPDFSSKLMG

Molecule	stabilization of F508del-2PT-NBD1 (F508del-2PT-NBD1)	pull-down of cellular CFTR, electrophoresis pattern (mature band C) (wt-CFTR)	quenching of YFP (CFTR function) (F508del-CFTR)	binding to 2PT-F508del expressing cells (2PT-F508del-CFTR)
T27: NBD1-specific CFTR-stabilizing nanobody, SEQ ID NO:4, binds epitope 1 (protein, T27 Nanobody amino acid sequence) VHH: QVQLQESGGGLEQPGGSLRLSCATSGVIFGINAMGWYRQAPGKQRELVATFTSGGSTNYADFVEGRFTISRDNAKNTVYLQMNGLRPEDTAVYYCHATVVVSRYGLTYDYWGQGTQVTVSS	to the same extent as 2PT-NBD1	also observed	quenching of YFP	
T2a: NBD1-specific CFTR-stabilizing nanobody, SEQ ID NO:3, binds epitope 1 (protein, T2a Nanobody amino acid sequence) VHH: QVQLQESGGGLVQAGGSLRLSCAASGSIFRIDAMGWYRQAPGKQRELVAHSTSGGSTDYADSVKGRFTISRDNAKNTVYLQMNSLKPEDTAVYYCNADVRTRWYASNNYWGQGTQVTVSS	to the same extent as 2PT-NBD1	identical electrophoresis pattern as observed in whole cell lysate	quenching of YFP	bind efficiently
T8: nanobody, SEQ ID NO:7, binds epitope 2 including F508, stabilizes WT CFTR but not F508del (protein, T8 Nanobody amino acid sequence) VHH: QVQLQESGGGLVQPGGSLRLSCAASGSTSSINAMGWYRQAPGKQREPVAISSSGGDTRYAEPVKGRFTISRDNAQNKVYLQMNSLKPEDTAVYYCWLNWGRTSVNSWGQGTQVTVSS	did not stabilize	identical electrophoresis pattern as observed in whole cell lysate		not able to bind
D12: NBD1-specific CFTR-stabilizing nanobody, SEQ ID NO:2, binds epitope 1 (protein, D12 Nanobody amino acid sequence) VHH: QVQLQESGGGLVQAGSSLRLACAATGSIRSINNMGWYRQAPGKQRGMVAIITRVGNTDYADSVKGRFTISRDNAKNTVYLQMNSLKPEDTATYYCHAEITEQSRPFYLTDDYWGQGTQVTVSS	to the same extent as 2PT-NBD1	also observed	quenching of YFP	
G3a: non-stabilizing nanobody, SEQ ID NO:50, recognizes the structurally diverse region of NBD1 (protein, G3a Nanobody) VHH: QVQLQESGGGLVQAGGSLRLSCTASGRAFSWYVMGWFRQAPGKEREFVATVSGNGSRRDYADSVKGRFTISRDNAKNTVYLQMNSLKPEDTAVYYCAASSTYYYTDPEKYDYWGQGTQVTVSS		identical electrophoresis pattern as observed in whole cell lysate		bind efficiently
